The target of the test is T1, GST-FHL3 (human, UniProt Q13643 1-280).
T1 construct: Four and a half LIM domain protein 3 (FHL3), human, full length cDNA amplified from pBV220/FHL3, in pGEX-4T-1; also called GST–FHL3 fusion protein; source: E. coli DH5α, purified (GSTrap FF column)
T1 sequence (looked up): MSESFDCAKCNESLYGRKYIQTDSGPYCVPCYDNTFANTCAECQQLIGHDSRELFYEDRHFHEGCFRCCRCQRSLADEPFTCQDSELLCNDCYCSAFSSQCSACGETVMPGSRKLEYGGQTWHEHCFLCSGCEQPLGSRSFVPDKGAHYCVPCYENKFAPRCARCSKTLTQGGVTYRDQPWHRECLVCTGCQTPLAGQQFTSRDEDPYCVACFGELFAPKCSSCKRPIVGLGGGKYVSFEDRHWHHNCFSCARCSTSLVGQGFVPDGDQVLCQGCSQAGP
The test is described as follows: pull-down; purified GST-FHL3 or GST on Glutathione Agarose, His-MT-1X from in vitro translation added, 4°C overnight; Western blot with anti-His. The note with it: both partners purified. For orientation: A western blot detects proteins with antibodies after separation by electrophoresis.

B1: His-MT-1X (natural protein)
chain: not shown
notes: MT-1X (metallothionein-1X), human; cDNA amplified by PCR from pACT2/MT-1X (the full length clone); also called pT7/MT-1X; source: in vitro translated (pT7CFE1-CHis)
Turning to B1, the binding result is listed as “binds”.

The values above are taken from paper PMC3972135, “Identification and Characterization of MT-1X as a Novel FHL3-Binding Partner” (PLoS ONE, 2014).
